Measurements as given in patent US20040171019A1, “PIN1 peptidyl-prolyl isomerase polypeptides, their crystal structures, and use thereof for drug design” (Agouron Pharmaceuticals, Inc., priority 2002, published 2004).

System: Suc-AEPF-pNA peptide substrate
Experiment: Peptidyl-prolyl isomerase activity of PIN1 polypeptides without inhibitor
Assay type: biochemical
Details: 0.033 nM enzyme, 100 μM Suc-AEPF-pNA
Description: PIN1 is a phosphorylation dependent peptidyl-prolyl isomerase. Peptidyl-prolyl ismomerase activity for the peptides of the invention can be measured using a spectrophotometric assay based on the coupled chymotrypsin catalyzed, cis-trans conformation dependent cleavage of a para-nitroanaline-containing peptide substrate. This rotamase assay is described by Kofron et al. (Biochemistry 30, […] (1991)) and its application to PIN1 isomerase activity is described by Yaffe et al. (Science 278, 1957-1960 (1997)). Cleavage of the isomerized peptide releases para-nitroanaline, which can be monitored by an increase in absorbance at 390 nm. The PIN1 peptide substrate, succinyl-alanine-[…]-proline-phenylalanine-paranitroaniline (Suc-AEPF-pNA) (Bachem California, Inc., Torrence, Calif.) is kept in a predominantly cis conformation with an anhydrous TFE (trifluorethanol)/LiCl (lithium chloride) solvent mixture. […]
Peptidyl-prolyl isomerase reactions were carried out in 25 mM MOPS [3-(N-Morpholino)propanesufonic acid], pH 7.5, 0.5 mM TCEP [Tris(2-carboxyethyl)phosphine hydrochloride], 2% DMSO, 5 μl of a 25 mg/ml solution of Subtilisin Carlsberg Protease (Sigma), […], and 100 μM Suc-AEPF-pNA peptide substrate. […] The absorbance at 390 nm was monitored continuously until all substrate had been converted to the cleaved product. […]

B1: mutant PIN1 PPIase (K77Q/K82Q): mutant PIN1 PPIase polypeptide (SEQ ID NO:4) devoid of the WW domain, with K77Q and K82Q substitutions (protein)
chain: GSHMGKNGQGEPARVRCSHLLVKHSQSRRPSSWRQEQITRTQEEALELINGYIQKIKSGEEDFESLASQFSDCSSAKARGDLGAFSRGQMQKPFEDASFALRTGEMSGPVFTDSGIHIILRTE
B1 gave a rate of 0.2.
